Data as given in article PMC12147174, “PEX1^G843D remains functional in peroxisome biogenesis but is rapidly degraded by the proteasome” (The Journal of Biological Chemistry, 2025).

Legend:
[1] = target: T1, ScPex1^WT (Pex1-FLAG), Saccharomyces cerevisiae (Saccharomyces cerevisiae, UniProt P24004 1-1043); experiment: SEC; coexpressed complex purified by Ni-NTA and anti-FLAG resin, equal concentrations of FLAG eluate loaded on Superose 6 in GF buffer (50-60 mM Hepes pH 7.6, 50 mM NaCl, 50 mM KCl, 5% glycerol, 10 mM MgCl2, 1 mM ATP); fractions by SDS-PAGE and Coomassie; settings: both partners purified
T1 construct: Pex1, Saccharomyces cerevisiae; Expressed from pETDuet; Forms a heterohexamer with Pex6; also called yeast Pex1; source: E. coli BL21, coexpressed with His-Pex6, purified (Ni-NTA, anti-FLAG M2 agarose, Superose 6)
T1 sequence (looked up): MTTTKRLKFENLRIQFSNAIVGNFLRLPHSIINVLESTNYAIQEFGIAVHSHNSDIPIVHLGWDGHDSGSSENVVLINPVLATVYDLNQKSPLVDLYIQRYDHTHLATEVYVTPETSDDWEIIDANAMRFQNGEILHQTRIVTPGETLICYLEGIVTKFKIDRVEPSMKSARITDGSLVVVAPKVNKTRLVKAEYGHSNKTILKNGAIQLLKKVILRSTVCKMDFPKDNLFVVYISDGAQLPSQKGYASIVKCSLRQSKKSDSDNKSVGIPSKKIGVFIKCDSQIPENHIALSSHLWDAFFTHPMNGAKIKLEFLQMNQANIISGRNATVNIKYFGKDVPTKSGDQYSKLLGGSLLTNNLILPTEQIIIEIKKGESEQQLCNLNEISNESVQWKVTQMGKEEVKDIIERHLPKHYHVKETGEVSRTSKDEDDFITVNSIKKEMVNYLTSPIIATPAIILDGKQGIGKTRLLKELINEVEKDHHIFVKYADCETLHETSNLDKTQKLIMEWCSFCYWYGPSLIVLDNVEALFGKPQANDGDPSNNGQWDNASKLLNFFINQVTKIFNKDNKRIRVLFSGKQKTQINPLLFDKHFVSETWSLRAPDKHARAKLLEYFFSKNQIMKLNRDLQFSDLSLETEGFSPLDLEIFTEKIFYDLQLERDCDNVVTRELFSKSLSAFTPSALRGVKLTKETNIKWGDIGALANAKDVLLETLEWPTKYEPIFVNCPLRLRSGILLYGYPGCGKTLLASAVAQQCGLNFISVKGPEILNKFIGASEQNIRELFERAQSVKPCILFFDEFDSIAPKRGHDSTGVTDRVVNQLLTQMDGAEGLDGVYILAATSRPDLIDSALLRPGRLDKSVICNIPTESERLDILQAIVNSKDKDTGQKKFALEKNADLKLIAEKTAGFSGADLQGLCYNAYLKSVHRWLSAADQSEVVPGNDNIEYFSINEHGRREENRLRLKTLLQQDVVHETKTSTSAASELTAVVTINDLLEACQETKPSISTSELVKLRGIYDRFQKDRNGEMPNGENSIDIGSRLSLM

[2] = target: T2, ScPex1^G700D (Pex1-FLAG G700D), Saccharomyces cerevisiae (Saccharomyces cerevisiae, UniProt P24004 1-1043, G700D); experiment: as above; settings: both partners purified
T2 construct: Pex1, Saccharomyces cerevisiae, with G700D (homologous to human G843D); source: E. coli BL21, coexpressed with His-Pex6, purified (Ni-NTA, anti-FLAG M2 agarose, Superose 6)
T2 sequence (looked up): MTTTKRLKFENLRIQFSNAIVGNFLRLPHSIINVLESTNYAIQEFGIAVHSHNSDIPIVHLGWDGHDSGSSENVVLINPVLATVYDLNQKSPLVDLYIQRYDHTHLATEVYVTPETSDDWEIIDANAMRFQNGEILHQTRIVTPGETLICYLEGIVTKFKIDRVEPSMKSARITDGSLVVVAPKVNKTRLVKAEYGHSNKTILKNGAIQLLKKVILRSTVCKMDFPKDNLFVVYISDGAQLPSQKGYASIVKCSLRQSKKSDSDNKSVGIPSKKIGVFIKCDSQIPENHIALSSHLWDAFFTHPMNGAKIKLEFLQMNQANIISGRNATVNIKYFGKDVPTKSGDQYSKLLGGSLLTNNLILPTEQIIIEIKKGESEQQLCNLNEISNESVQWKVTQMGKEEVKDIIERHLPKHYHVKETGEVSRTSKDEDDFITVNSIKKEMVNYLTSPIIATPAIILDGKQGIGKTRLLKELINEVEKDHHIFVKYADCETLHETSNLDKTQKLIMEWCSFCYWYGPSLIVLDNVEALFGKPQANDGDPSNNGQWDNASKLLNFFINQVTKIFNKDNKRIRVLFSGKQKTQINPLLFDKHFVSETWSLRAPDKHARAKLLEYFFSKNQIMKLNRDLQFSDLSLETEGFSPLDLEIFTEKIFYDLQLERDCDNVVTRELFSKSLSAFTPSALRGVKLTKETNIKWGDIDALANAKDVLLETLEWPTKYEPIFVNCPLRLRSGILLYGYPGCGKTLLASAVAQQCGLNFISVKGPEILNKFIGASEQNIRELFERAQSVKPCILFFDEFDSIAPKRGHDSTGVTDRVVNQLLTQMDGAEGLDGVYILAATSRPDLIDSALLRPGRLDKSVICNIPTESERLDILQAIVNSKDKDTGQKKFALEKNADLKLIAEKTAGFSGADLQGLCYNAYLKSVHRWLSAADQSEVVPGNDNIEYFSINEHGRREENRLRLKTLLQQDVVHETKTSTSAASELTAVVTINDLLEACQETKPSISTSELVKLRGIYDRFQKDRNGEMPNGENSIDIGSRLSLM

- binding result [1]: binds
- binding result [2]: binds
B1: ScPex6 (His-Pex6), Saccharomyces cerevisiae (natural protein)
chain: MKASLTFSLSGIYAPCSISRDIYLEYGDKKAECLYGTIRLPQYGPGCTPGKIVHCVLDDSLPFCSIVVPSKLFGFMPTQPTMDFCYFEPILDNVVPVLDSVTFLINEQLYSKLMDLPQEMQQIQFLHYKYNINSMETVVHSRDILTSGLCQILNCSPFPQGLVDFTETQLILVNDTEQKLSALKYANEDEEYALPKIGTNSALSIDLESLPCTISRDLLRPAPHINDDNSIYAFTDAETLLRLDVTSGSFITVSNMGCVRLVKLFVLLLPNGFKKRTIYAPPKIIASFPDCSVVTISKSNIGHTDIPIANQVFISRVGGWLQSQKCFQNIILTTLKKFFSESKRILCQNDLIPIAFDSSMADLNIAEENDESDDEDELGQYYKNDSLVWFFVTSAELDCFSKDNSHFIIDPNRTKLITTNITNRRPLPLSRSNLQRYYGFAETFYYDLHIFPYVRQLVNILETSFNCSQRGITLNASVLLHSTTNNVGKATMVRFASKYLGIHLLEIDCLSLTSNSRQLDSTSKIIGYIRAKCENVLPYASPAVIFLAHLDSILLDVNANQDPEAIKLQKSINFEMSKLLDDFTFKFPGTTFVGSVNNIDNVPSSFRSHMRFEILVPVPSEAQRLRIFQWYLSSHELNRDVQQKVPVSYMDNISFSSLSSYSAGLTPLDIKSIVETARMTATARFYQESKKCGWLPQSILITQEDLSKATSKARNEFSVSIGAPQIPNVTWDDIGGIDFVKGEILDTIDMPLKHPELFTSGMKKRSGILFYGPPGTGKTLMAKAIATNFSLNFFSVKGPELLNMYIGESEANVRRVFQKAREAKPCVIFFDEIDSVAPKRGNQGDSGGVMDRIVSQLLAELDGMSTDADGVFVIGATNRPDLLDEALLRPGRFDKLLYLGIPDTDTKQLNILEALTRKFVLDNDVKLIELAKLCPFNYTGADFYALCSDAMLNAMSRIARMVEKKVSQHNELTGENISTRRWFDKIATKEDTKVVVKMEDFLKAQEQLTPSVSRAELNHYEAVRANFEGA
notes: Pex6, Saccharomyces cerevisiae; Expressed from pCOLADuet; source: E. coli BL21, coexpressed with Pex1-FLAG, purified (Ni-NTA, anti-FLAG M2 agarose, Superose 6)
